From FireProtDB (doi:10.1016/j.jmb.2006.03.027)
Values joined by “and” are separate entries in the source; they are usually repeats but may differ in a detail not shown here. Identical values can stand only once.

Settings: Saccharomyces cerevisiae (strain ATCC 204508 / S288c); pH 7; Thermal; CD; potassium phosphate 25 mM; reversible: Yes; whole UniProt chain shown

B1: GrpE protein homolog, mitochondrial wild type, P38523 (protein)
chain: MRAFSAATVRATTRKSFIPMAPRTPFVTPSFTKNVGSMRRMRFYSDEAKSEESKENNEDLTEEQSEIKKLESQLSAKTKEASELKDRLLRSVADFRNLQQVTKKDIQKAKDFALQKFAKDLLESVDNFGHALNAFKEEDLQKSKEISDLYTGVRMTRDVFENTLRKHGIEKLDPLGEPFDPNKHEATFELPQPDKEPGTVFHVQQLGFTLNDRVIRPAKVGIVKGEEN
- Tm: 53.2 °C and 52.5 °C and 52.4 °C
